The series deals with the molecule itself. Kind of series: in vitro polymerisation into needles, seen by transmission electron microscopy and solid-state NMR; purified subunit polymerised at 0.2 mM, 37°C, sixteen days; needles ultra-centrifuged for magic-angle spinning solid-state NMR at 5.5°C.

B1: MxiH, wild-type Shigella flexneri T3SS needle subunit (recombinant, His tag cleaved) (natural protein)
chain: GHMSVTVPDKDWTLSSLSETFDDGTQTLQGQLTSALNALAENPSNPQLLAEYQSKLSEYTLYRNAQSNTVKVIKDVDAAIIQNFR
modifications: 15N and 13C isotope labelling
notes: non-native N-terminal residues glycine and histidine left after cleavage by tobacco etch virus protease (told in words); MxiH, T3SS needle subunit, Shigella flexneri serotype 6, residues Met1 to R83; Helical homopolymer (needle); also called WT MxiH; WT Shigella T3SS needles; source: polymerized in vitro; not shown: hepta-Histidine (His) tag, N-terminal, cleaved
With B1, the binding result is on record as “binds”.

For the origin of these results see publication PMC3605151, “The Common Structural Architecture of Shigella flexneri and Salmonella typhimurium Type Three Secretion Needles” (PLoS Pathogens, 2013).
